We go through eight molecules from US20080274114A1 (APPLIED MOLECULAR EVOLUTION, published 2008).

Where a chain is given by its changes, count along the chain named.

Assay [1] deals with T1, soluble EGFR (sEGFR), amino acids 1-619 of mature human EGFR with (Gly)4Ser linker and (His)6 tag (human, UniProt P00533 25-643, biotinylated with Sulfo-NHS-LC-Biotin in the filter lift and the capture ELISA).
T1 construct: range 1-619; Expressed in CHO-K1 cells; also called biotinylated sEGFR; B-sEGFR
In words: capture filter lift and capture ELISA, biotinylated sEGFR.
Experimental: Briefly, a filter is coated with a capture reagent (goat anti-human kappa chain antibody), then the coated filter is placed on a plate with phage plaques, from phage which are expressing Fabs. The filter is incubated with the plaques, then the filter is incubated with biotinylated sEGFR, and bound biotinylated sEGFR is detected by binding of Neutravidin-AP and incubation with the detectable alkaline phosphatase substrate.
The filter is submerged for 15 min. The filter is washed three times in PBS. The filter is blocked in 1% BSA in PBS for 1 hour. The filter is washed three times in PBS. The filter is air dried for 10 min. The filter is carefully laid onto phage plate and incubated overnight at 22° C. The filter is carefully lifted off and washed briefly in PBS. The filter is incubated with Biotinylated antigen at 1/1000 dilution into 3% dry milk, PBS, 0.05% Tween 20 for 1 hour at room temperature. The filter is vacuum washed with PBS, 0.05% Tween 20 three times. The filter is incubated with Neutravidin-AP 1/1000 in PBS, 0.05% Tween 20 for 30 min. at room temperature. The filter is vacuum washed with PBS, 0.05% Tween 20 three times. The filter is developed in 10 mls AP substrate (Nitro-blue tetrazolium, 5-Bromo-4-chloro-indolyl phosphate, Pierce, Rockford, Ill.). Plaques are selected based on blue color intensity.
Capture ELISA is used as an assay to detect Fabs which bind sEGFR as follows. […] The wells are washed 3 times with PBS-Tween 20 (0.05%). the wells are blocked with 50 μL/well 1% BSA in PBS-Tween for 1 hour at RT. The wells are washed 3 times with PBS-Tween. […] The plate is incubated at RT for 2 hours. The plate is wash 3 times with PBS-Tween. 50 μL/well biotinylated-sEGFR diluted 1/1000 in PBS-Tween are added and the plate is incubated at RT for 1 hour. The plate is washed 3 times with PBS-Tween.

Assay [2] addresses T1, soluble EGFR (sEGFR), amino acids 1-619 …. The assay can be described thus: KinExA, equilibrium, full-length antibody with sEGFR in solution.
Experimental: (§1) Binding affinity measurements for full-length monoclonal antibodies of the invention are determined using a Sapidyne KINEXA assay. NHS-activated fast-flow sepharose beads (GE Healthcare) are pre-coated with antigen (50 μg anti-EGFR antibody per ml of beads) and blocked with 10 mg/ml BSA in 1 M Tris-HCl, pH 8.0. […] To determine the free antibody present at equilibrium, each sample is passed through the sEGFR-coated beads. The amount of bead-bound antibody is then quantified by passing a solution of fluorescent (Cy5) labeled goat anti-human Fc antibody (Jackson Immuno Research) diluted 1:4000 in running buffer over the beads. The measured fluorescence signal is proportional to the concentration of free antibody at equilibrium. Each concentration of sEGFR is measured in duplicate. The equilibrium dissociation constant (KD) is obtained from non-linear regression of the competition curves using a multiple-curve, one-site homogeneous binding model (KINEXA software).
Assay [3] has the same target. The assay can be described thus: KinExA, calculated as Kd x kon.
Experimental: as §1
(§2) The association rate constant (kₒₙ) for sEGFR binding is also determined using a Sapidyne KINEXA assay. Two pM antibody is mixed with 20 pM sEGFR using the same conditions as described above. At various times, samples are probed for free antibody using the conditions described above for equilibrium binding, and then the resulting time dependence is fit using the KINEXA software to determine the association rate (kₒₙ). The dissociation rate constant (koff) is calculated using the expression koff=Kd×kₒₙ.
The target is the same in assay [4]. In words: KinExA, full-length antibody with sEGFR in solution.
Experimental: as §1, §2
Assay [5] has the same target. The assay can be described thus: capture ELISA: binder captured on goat anti-human kappa at varied concentration, biotinylated sEGFR (1/1000) detected with Neutravidin-AP, OD405.
Experimental: Capture ELISA is used as an assay to detect Fabs which bind sEGFR as follows. […] The wells are washed 3 times with PBS-Tween 20 (0.05%). the wells are blocked with 50 μL/well 1% BSA in PBS-Tween for 1 hour at RT. The wells are washed 3 times with PBS-Tween. […] The plate is incubated at RT for 2 hours. The plate is wash 3 times with PBS-Tween. 50 μL/well biotinylated-sEGFR diluted 1/1000 in PBS-Tween are added and the plate is incubated at RT for 1 hour. The plate is washed 3 times with PBS-Tween. 50 μL/well Neutravidin-Alkaline Phosphatase (Neutravidin-AP; Pierce, Rockford, Ill.) diluted 1/1000 in PBS-Tween are added and incubated for 30 min. at RT. The plate is washed 3 times with PBS-Tween. 150 μL/well pNPP substrate (Sigma) is added and incubated at 37° C. until color develops.

B1: Fab 4.14 (Fab, V domains shown)
VH: QVQLQESGPGLVKPSETLSLTCTVSGFSLTNWDVHWIRQPPGKGLEWIGNIWSGGNTDYNTPFTSRVTISVDTSKNQFSLKLSSVTAADTAVYYCARALDYYDYDYAYWGQGTMVTVSS
VL: EIVLTQSPDFQSVTPKEKVTITCRASYSIGTNIHWYQQKPDQSPKLLIKYASESISGVPSRFSGSGSGTDFTLTINSLEAEDAATYYCQQNNDWPTTFGGGTKVEIK
notes: Fab
Consider B1, for which, in assay [1], the binding result was “binds”.

B2: full-length monoclonal antibody VH2.87 (antibody, V domains shown)
VH: QVTLKESGPVLVKPTETLTLTCTVSGFSLSNWDVHWIRQPPGKALEWLAVIWSGGATDYNTPFNSRLTISKDTSKSQVVLTMTNMDPVDTATYYCARALDYYDYNFAYWGQGTMVTVSS
VL: B1 VL with D93N
notes: Full-length antibody with human Fc
With B2, binding in assay [2] was characterised by a dissociation constant (Kd) of 0.215 pM.

B3: full-length monoclonal antibody VH2.69 (antibody, V domains shown)
VH: B2 VH with A56N, N64A
VL: B1 VL with D93N, T97S
notes: as for B2
With B3, the koff in assay [3] is 6.51e-06 s⁻¹. The kon in assay [4] was determined as 9.64e+06 M⁻¹ s⁻¹. Binding in assay [2] was put at a Kd of 0.68 pM.

B4: Fab 2.II.3 (Fab, V domains shown)
VH: B2 VH with A56N, N64T, N105D
VL: B1 VL
notes: Fab; also called 2.11.3
Consider B4, for which, in assay [1], the binding result is “binds”.

B5: Fab 2.38 (Fab, V domains shown)
VH: B2 VH with D33G, A56N, N64D, N105D
VL: B1 VL with D93E, T97S
notes: Fab
For the molecule B5, the binding result in assay [1] is recorded as “binds”.

B6: full-length monoclonal antibody VH4.21 (antibody, V domains shown)
VH: B1 VH with N50V, Y106F
VL: B1 VL with T97S
notes: as for B2
As to B6, the koff in assay [3] was 2.02e-06 s⁻¹. This molecule came in with a kon in assay [4] of 1.07e+07 M⁻¹ s⁻¹. The same molecule registered a Kd in assay [2] of 0.188 pM.

B7: Fab 4.21 (Fab, V domains shown)
VH: B1 VH with N50V, Y106F
VL: B1 VL with T97S
notes: Fab
B7: in assay [5], the “EC50 (read off the curve)” value is ~0.02 µg/mL.

B8: full-length monoclonal antibody VH4.15 (antibody, V domains shown)
VH: B1 VH with W32Y, D33G
VL: B1 VL with D93E, T97S
notes: as for B2
As for B8, the koff in assay [3] was 1.75e-07 s⁻¹. The molecule further yielded a kon in assay [4] of 1.46e+07 M⁻¹ s⁻¹. The affinity in assay [2], expressed as Kd, was 0.012 pM.
